Experiments:
[1] = biological target: the molecule itself; assay: SEC-MALS; SEC-MALLS, Superdex75 10/300, 50 mM Tris pH 7.5, 150 mM NaCl; samples loaded at 20, 200 or 500 μM
[2] = biological target: the molecule itself; assay: AUC; sedimentation equilibrium, 20 and 200 μM TolR(36–142), 15,000-35,000 rpm, 20 h at each speed, 50 mM Tris pH 7.5, 150 mM NaCl, 20 °C, interference optics; self-association model

Row | Protein | binding result [1] | stoichiometry N [2]
1 | E. coli TolR(60–133), truncated TolR (domain or fragment, Escherichia coli K12, three residues left at the N terminus after cleavage by tobacco etch virus protease; TolR, Escherichia coli K12, residues 60-133 (N- and C-terminal strand-swapped regions deleted); expected mass 8314.6 Da; Dimer that dissociates already at 200 μM; also called TolR24; source: E. coli BL21 DE3, purified (HisTrap, TEV cleavage, Superdex75); not shown: His6, N-terminal, cleaved) GAMDNPPVIVEVSGIGQYTVVVEKDRLERLPPEQVVAEVSSRFKANPKTVFLIGGAKDVPYDEIIKALNLLHSAGVK | binds | 
2 | E. coli TolR(36–133) (domain or fragment, Escherichia coli K12, three residues left at the N terminus after cleavage by tobacco etch virus protease; TolR, Escherichia coli K12, residues 36-133 (9 C-terminal residues deleted); expected mass 10,768.2 Da; Dimer that dissociates on dilution; essentially monomeric at low micromolar concentrations; source: E. coli BL21 DE3, purified (HisTrap, TEV cleavage, Superdex75); not shown: His6, N-terminal, cleaved) GAMAPIITQSVEVDLPDATESQAVSSNDNPPVIVEVSGIGQYTVVVEKDRLERLPPEQVVAEVSSRFKANPKTVFLIGGAKDVPYDEIIKALNLLHSAGVK | binds | 
3 | E. coli TolR(64–142) (domain or fragment, Escherichia coli K12, three residues left at the N terminus after cleavage by tobacco etch virus protease; expected mass 8818.3 Da; Dimer that dissociates on dilution; source: E. coli BL21 DE3, purified (HisTrap, TEV cleavage, Superdex75); not shown: His6, N-terminal, cleaved) GAMVIVEVSGIGQYTVVVEKDRLERLPPEQVVAEVSSRFKANPKTVFLIGGAKDVPYDEIIKALNLLHSAGVKSVGLMTQPI | binds | 
4 | E. coli TolR(36–142), intact periplasmic domain of TolR (domain or fragment, Escherichia coli K12, three residues left at the N terminus after cleavage by tobacco etch virus protease; expected mass of the monomer 11,695.4 Da; Vector pETM-11; also called TolR21; source: E. coli BL21 DE3, purified (HisTrap, TEV cleavage, Superdex75); not shown: His6, N-terminal, cleaved) GAMAPIITQSVEVDLPDATESQAVSSNDNPPVIVEVSGIGQYTVVVEKDRLERLPPEQVVAEVSSRFKANPKTVFLIGGAKDVPYDEIIKALNLLHSAGVKSVGLMTQPI |  | 2
